The record followed here is patent US20060121489.

In one data set the target is NF-kB p50 homodimer (UniProt P19838). The conditions noted are these: quoted in comparison with XBY-6.
Data set [1] addresses NF-kB p65 (RelA) homodimer (UniProt Q04206). Kind of data set: EMSA. The conditions noted are these: 1:1 stoichiometry of p65 to the 22-mer site. (A gel shift assay detects complexes by their altered migration in electrophoresis.)

pKd: −log10 of the molar value.

The pKd is −log10 of the Kd, conventionally taken in molar units. Low values mean a high Kd, high ones a low Kd.

NF-kB p50 homodimer, sequence (P19838 1-433): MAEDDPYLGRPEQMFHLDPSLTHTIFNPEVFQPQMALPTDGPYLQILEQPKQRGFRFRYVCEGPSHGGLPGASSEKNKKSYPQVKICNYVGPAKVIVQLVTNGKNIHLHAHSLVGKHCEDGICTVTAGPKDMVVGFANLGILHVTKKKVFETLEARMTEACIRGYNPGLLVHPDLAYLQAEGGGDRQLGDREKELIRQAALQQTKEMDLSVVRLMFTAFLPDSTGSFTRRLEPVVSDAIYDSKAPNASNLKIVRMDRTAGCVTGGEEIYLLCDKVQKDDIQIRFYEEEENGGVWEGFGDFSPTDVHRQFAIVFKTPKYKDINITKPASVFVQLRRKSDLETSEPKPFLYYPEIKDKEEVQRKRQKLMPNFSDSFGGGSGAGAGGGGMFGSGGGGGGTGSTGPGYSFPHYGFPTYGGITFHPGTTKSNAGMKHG
NF-kB p65 (RelA) homodimer, sequence (Q04206 whole entry): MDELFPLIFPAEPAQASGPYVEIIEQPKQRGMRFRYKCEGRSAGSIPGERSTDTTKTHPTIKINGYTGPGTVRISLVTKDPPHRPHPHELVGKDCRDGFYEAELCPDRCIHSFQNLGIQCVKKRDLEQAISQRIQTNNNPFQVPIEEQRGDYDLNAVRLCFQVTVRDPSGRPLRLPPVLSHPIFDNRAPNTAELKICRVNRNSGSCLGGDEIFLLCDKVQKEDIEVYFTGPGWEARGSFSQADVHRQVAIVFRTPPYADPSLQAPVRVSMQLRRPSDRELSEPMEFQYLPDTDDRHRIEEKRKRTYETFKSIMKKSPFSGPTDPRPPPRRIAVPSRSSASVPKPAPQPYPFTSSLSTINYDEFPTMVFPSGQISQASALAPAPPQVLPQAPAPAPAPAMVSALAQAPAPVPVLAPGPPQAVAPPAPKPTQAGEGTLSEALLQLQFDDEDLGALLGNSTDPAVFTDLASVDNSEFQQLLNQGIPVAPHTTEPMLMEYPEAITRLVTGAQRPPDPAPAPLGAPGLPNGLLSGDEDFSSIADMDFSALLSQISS

Consider IgkB promoter element 22-mer, for which the pKd (with NF-kB p50 homodimer; in data set [1]) was 8.40 throughout.
